From paper PMC4434323

Legend:
[1] = target: T1, daf-19 (F33H1.1) (Caenorhabditis elegans) (UniProt Q09555)
T1 sequence: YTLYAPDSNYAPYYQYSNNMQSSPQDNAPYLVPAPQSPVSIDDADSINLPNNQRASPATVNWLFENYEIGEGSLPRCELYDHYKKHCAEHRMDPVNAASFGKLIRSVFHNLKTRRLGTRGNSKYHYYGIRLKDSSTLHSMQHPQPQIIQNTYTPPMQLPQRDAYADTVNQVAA

[2] = target: T2, elt-6 (F52C12.5) (Caenorhabditis elegans) (UniProt G5EGN3)
T2 sequence: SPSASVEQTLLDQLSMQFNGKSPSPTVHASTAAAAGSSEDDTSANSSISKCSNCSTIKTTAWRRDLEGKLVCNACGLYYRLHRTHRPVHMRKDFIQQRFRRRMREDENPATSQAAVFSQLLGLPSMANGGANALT

[3] = target: T3, elt-7 (C18G1.2) (Caenorhabditis elegans) (UniProt O61924)
T3 sequence: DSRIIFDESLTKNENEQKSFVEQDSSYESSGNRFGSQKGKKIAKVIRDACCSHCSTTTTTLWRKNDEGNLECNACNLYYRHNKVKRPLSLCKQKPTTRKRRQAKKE

[4] = target: T4, tbx-33 (Y66A7A.8) (Caenorhabditis elegans) (UniProt O45291)
T4 sequence: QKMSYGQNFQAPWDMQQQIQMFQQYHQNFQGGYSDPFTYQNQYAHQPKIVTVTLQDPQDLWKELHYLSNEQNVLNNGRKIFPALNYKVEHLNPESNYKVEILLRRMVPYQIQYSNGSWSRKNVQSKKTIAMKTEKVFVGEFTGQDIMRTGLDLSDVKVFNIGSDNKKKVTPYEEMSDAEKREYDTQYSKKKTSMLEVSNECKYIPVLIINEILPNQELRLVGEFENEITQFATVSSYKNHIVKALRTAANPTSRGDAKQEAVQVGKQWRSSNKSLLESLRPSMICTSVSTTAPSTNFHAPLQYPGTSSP

[5] = target: T5, nhr-5 (Y73F8A.21) (Caenorhabditis elegans) (UniProt Q9NA51)
T5 sequence: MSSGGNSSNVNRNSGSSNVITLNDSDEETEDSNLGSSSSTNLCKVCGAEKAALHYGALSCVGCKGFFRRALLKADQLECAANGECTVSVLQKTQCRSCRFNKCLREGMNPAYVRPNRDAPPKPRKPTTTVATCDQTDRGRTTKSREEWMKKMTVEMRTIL

[6] = system: scrt-1 (C55C2.1) (Caenorhabditis elegans)
[7] = target: T6, mnm-2 (C10A4.8) (Caenorhabditis elegans) (UniProt Q17895)
T6 sequence: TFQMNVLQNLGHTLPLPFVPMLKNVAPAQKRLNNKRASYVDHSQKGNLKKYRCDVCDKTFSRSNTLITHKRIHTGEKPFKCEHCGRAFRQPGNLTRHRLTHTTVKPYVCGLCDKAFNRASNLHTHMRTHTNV

[8] = target: T7, daf-12 (F11A1.3) (Caenorhabditis elegans) (UniProt G5EFF5)
T7 sequence: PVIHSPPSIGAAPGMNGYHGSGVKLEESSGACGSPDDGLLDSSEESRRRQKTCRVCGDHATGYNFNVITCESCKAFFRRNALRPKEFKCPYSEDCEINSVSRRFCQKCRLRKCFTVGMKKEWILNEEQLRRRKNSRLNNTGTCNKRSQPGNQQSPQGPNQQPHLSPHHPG

[9] = target: T8, let-381 (F26B1.7) (Caenorhabditis elegans) (UniProt P91278)
T8 sequence: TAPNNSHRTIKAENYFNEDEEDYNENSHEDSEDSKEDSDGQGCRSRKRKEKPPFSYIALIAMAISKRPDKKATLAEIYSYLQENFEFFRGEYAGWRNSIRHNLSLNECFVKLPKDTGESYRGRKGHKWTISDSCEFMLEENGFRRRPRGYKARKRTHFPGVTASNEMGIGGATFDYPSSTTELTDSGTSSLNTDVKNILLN

[10] = target: T9, fkh-9 (K03C7.2) (Caenorhabditis elegans) (UniProt Q21187)
T9 sequence: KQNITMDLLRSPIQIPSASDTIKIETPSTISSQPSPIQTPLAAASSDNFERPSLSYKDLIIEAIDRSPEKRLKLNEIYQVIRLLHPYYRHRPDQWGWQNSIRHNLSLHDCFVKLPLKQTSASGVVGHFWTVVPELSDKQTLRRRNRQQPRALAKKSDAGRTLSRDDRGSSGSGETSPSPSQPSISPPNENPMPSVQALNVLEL

[11] = target: egl-13 (T22B7.1) (Caenorhabditis elegans) (UniProt Q23045)
[12] = target: T10, F55C5.11 (F55C5.11) (Caenorhabditis elegans) (UniProt Q1ZXU0)
T10 sequence: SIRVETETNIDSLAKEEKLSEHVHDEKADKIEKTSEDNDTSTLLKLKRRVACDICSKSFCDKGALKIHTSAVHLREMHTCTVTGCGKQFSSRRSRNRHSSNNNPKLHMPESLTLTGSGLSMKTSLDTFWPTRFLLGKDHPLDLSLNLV

Chain of egl-13 (T22B7.1) (Caenorhabditis elegans) (Q23045 279-447): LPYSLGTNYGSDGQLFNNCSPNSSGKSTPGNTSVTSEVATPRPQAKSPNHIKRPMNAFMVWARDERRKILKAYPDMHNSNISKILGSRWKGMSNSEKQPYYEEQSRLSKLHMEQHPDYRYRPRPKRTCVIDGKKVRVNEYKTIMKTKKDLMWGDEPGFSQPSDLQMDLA
Chain of scrt-1 (C55C2.1) (Caenorhabditis elegans) (chain, as listed by the source): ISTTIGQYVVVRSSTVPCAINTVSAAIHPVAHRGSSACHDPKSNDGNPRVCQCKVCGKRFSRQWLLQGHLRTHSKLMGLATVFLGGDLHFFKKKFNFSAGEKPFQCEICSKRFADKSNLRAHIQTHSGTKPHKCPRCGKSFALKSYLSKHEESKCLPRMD

Question: How did the binding signal (PBM E-score (-0.5 to 0.5)) [1] turn out when “ATAGCAAC (double strand) [8-mer ATAGCAAC]” was run?
Answer: 0.489

Question: “CGTTATCA (double strand) [8-mer CGTTATCA]” was tested. Which binding signal (PBM E-score (-0.5 to 0.5)) [2] did it give?
Answer: 0.493

Question: What about the binding signal (PBM E-score (-0.5 to 0.5)) [3] of the same sequence?
Answer: 0.478

Question: “ATCTCCAC (double strand) [8-mer ATCTCCAC]” was tested. Which binding signal (PBM E-score (-0.5 to 0.5)) [4] did it give?
Answer: 0.485

Question: “ATCTCCAG (double strand) [8-mer ATCTCCAG]” was tested. Which binding signal (PBM E-score (-0.5 to 0.5)) [4] did it give?
Answer: 0.474

Question: For “AAAGAACG (double strand) [8-mer AAAGAACG]”, which binding signal (PBM E-score (-0.5 to 0.5)) [5] is on record?
Answer: 0.458

Question: For “ACAACCAC (double strand) [8-mer ACAACCAC]”, which binding signal (PBM E-score (-0.5 to 0.5)) [6] is on record?
Answer: 0.472

Question: Which binding signal (PBM E-score (-0.5 to 0.5)) [7] does the source give for “GATGTGCA (double strand) [8-mer GATGTGCA]” here?
Answer: 0.457

Question: With “AAAGTACA (double strand) [8-mer AAAGTACA]” as the sequence, how does the binding signal (PBM E-score (-0.5 to 0.5)) [8] read?
Answer: 0.497

Question: What about the binding signal (PBM E-score (-0.5 to 0.5)) [5] of the same sequence?
Answer: 0.482

Question: “GAAGTGCA (double strand) [8-mer GAAGTGCA]” was tested. Which binding signal (PBM E-score (-0.5 to 0.5)) [8] did it give?
Answer: 0.491

Question: And the binding signal (PBM E-score (-0.5 to 0.5)) [7]?
Answer: 0.459

Question: How did the binding signal (PBM E-score (-0.5 to 0.5)) [7] turn out when “GCGTATCC (double strand) [8-mer GCGTATCC]” was run?
Answer: 0.454

Question: For “GATGCGCA (double strand) [8-mer GATGCGCA]”, which binding signal (PBM E-score (-0.5 to 0.5)) [7] is on record?
Answer: 0.484

Question: For “ATAAACAA (double strand) [8-mer ATAAACAA]”, which binding signal (PBM E-score (-0.5 to 0.5)) [9] is on record?
Answer: 0.489

Question: And the binding signal (PBM E-score (-0.5 to 0.5)) [10]?
Answer: 0.485

Question: Which binding signal (PBM E-score (-0.5 to 0.5)) [5] does the source give for “ATAGTACA (double strand) [8-mer ATAGTACA]” here?
Answer: 0.452

Question: How did the binding signal (PBM E-score (-0.5 to 0.5)) [2] turn out when “CTGATAAG (double strand) [8-mer CTGATAAG]” was run?
Answer: 0.496

Question: And the binding signal (PBM E-score (-0.5 to 0.5)) [3]?
Answer: 0.472

Question: For “CTGATAAC (double strand) [8-mer CTGATAAC]”, which binding signal (PBM E-score (-0.5 to 0.5)) [2] is on record?
Answer: 0.493

Question: What about the binding signal (PBM E-score (-0.5 to 0.5)) [3] of the same sequence?
Answer: 0.467

Question: How did the binding signal (PBM E-score (-0.5 to 0.5)) [11] turn out when “AACAATAC (double strand) [8-mer AACAATAC]” was run?
Answer: 0.453

Question: For “GCGGATCC (double strand) [8-mer GCGGATCC]”, which binding signal (PBM E-score (-0.5 to 0.5)) [7] is on record?
Answer: 0.472

Question: With “ACTGATAA (double strand) [8-mer ACTGATAA]” as the sequence, how does the binding signal (PBM E-score (-0.5 to 0.5)) [2] read?
Answer: 0.496

Question: What about the binding signal (PBM E-score (-0.5 to 0.5)) [3] of the same sequence?
Answer: 0.476

Question: How did the binding signal (PBM E-score (-0.5 to 0.5)) [4] turn out when “ATTGTCAC (double strand) [8-mer ATTGTCAC]” was run?
Answer: 0.47

Question: And the binding signal (PBM E-score (-0.5 to 0.5)) [12]?
Answer: 0.486

Question: Which binding signal (PBM E-score (-0.5 to 0.5)) [2] does the source give for “GCTGATAA (double strand) [8-mer GCTGATAA]” here?
Answer: 0.493

Question: What about the binding signal (PBM E-score (-0.5 to 0.5)) [3] of the same sequence?
Answer: 0.471

Question: How did the binding signal (PBM E-score (-0.5 to 0.5)) [1] turn out when “GTAACTAA (double strand) [8-mer GTAACTAA]” was run?
Answer: 0.465

Question: Which binding signal (PBM E-score (-0.5 to 0.5)) [1] does the source give for “TAGCAACA (double strand) [8-mer TAGCAACA]” here?
Answer: 0.474

Question: How did the binding signal (PBM E-score (-0.5 to 0.5)) [1] turn out when “CGTTGCTA (double strand) [8-mer CGTTGCTA]” was run?
Answer: 0.489

Question: With “GTTGCTAA (double strand) [8-mer GTTGCTAA]” as the sequence, how does the binding signal (PBM E-score (-0.5 to 0.5)) [1] read?
Answer: 0.487

Question: With “AACAATAG (double strand) [8-mer AACAATAG]” as the sequence, how does the binding signal (PBM E-score (-0.5 to 0.5)) [11] read?
Answer: 0.485

Question: How did the binding signal (PBM E-score (-0.5 to 0.5)) [8] turn out when “AAGTGCAC (double strand) [8-mer AAGTGCAC]” was run?
Answer: 0.498

Question: And the binding signal (PBM E-score (-0.5 to 0.5)) [5]?
Answer: 0.453

Question: How did the binding signal (PBM E-score (-0.5 to 0.5)) [11] turn out when “ACAACAAT (double strand) [8-mer ACAACAAT]” was run?
Answer: 0.455

Question: For “ATCGTCAC (double strand) [8-mer ATCGTCAC]”, which binding signal (PBM E-score (-0.5 to 0.5)) [4] is on record?
Answer: 0.487

Question: Which binding signal (PBM E-score (-0.5 to 0.5)) [9] does the source give for “AGTAAACA (double strand) [8-mer AGTAAACA]” here?
Answer: 0.457

Question: And the binding signal (PBM E-score (-0.5 to 0.5)) [10]?
Answer: 0.485

Question: With “AGCGCATC (double strand) [8-mer AGCGCATC]” as the sequence, how does the binding signal (PBM E-score (-0.5 to 0.5)) [7] read?
Answer: 0.459

Question: How did the binding signal (PBM E-score (-0.5 to 0.5)) [4] turn out when “ATCACCAC (double strand) [8-mer ATCACCAC]” was run?
Answer: 0.459
